Data on one protein can be found in patent publication US20030167486.

This data set deals with human APP London (V717F), P05067.

B1: human BACE (protein)
chain: ETDEEPEEPGRRGSFVEMVDNLRGKSGQGYYVEMTVGSPPQTLNILVDTGSSNFAVGAAPHPFLHRYYQRQLSSTYRDLRKGVYEPYTQGKWEGELGTDLVSIPHGPNVTVRANIAAITESDKFFINGSNWEGILGLAYAEIARPDDSLEPFFDSLVKQTHVPNLFSLQLCGAGFPLNQSEVLASVGGSMIIGGIDHSLYTGSLWYTPIRREWYYEVIIVRVEINGQDLKMDCKEYNYDKSIVDSGTTNLRLPKKVFEAAVKSIKAASSTEKFPDGFWLGEQLVCWQAGTTPWNIFPVISLYLMGEVTNQSFRITILPQQYLRPVEDVATSQDDCYKFAISQSSTGTVMGAVIMEGFYVVFDRARKRIGFAVSACHVHDEFRTAAVEGPFVTLDMEDCGYNIPQTDESTLMTIAYVMAAICALFMLPLCLMVCQWRCLRCLRQQHDDFADDISLLK
For the protein B1, the “12 kD beta-secretase fragment of APP on Western blot of brain homogenate” value is recorded as “the 12 kD beta-secretase fragment of APP is strongly increased due to expression of transgenic beta-secretase”; the “sAPP alpha and sAPP beta fragments in supernatants of organotypic cerebellar slice cultures (ELISA)” value was “the over-expression of beta-secretase in APP London single transgenic mice induces a preferential cleavage of APPV717F at the beta cut as demonstrated by the lack of sAPPalpha fragment detection and the increase of sAPPbeta”.
